{"source": "patent US20250025544A1", "key": {"[1]": {"molecular_target": "… (HCMV pp65, epitope 1) presented by HLA-A*0201 (human; HCMV)", "experiment": "cell-based or functional assay"}, "[2]": {"molecular_target": "… (EBV LMP2A, epitope 2) presented by HLA-A*0201 (human; EBV)", "experiment": "cell-based or functional assay"}, "[3]": {"details": "scale: luciferase induction relative to uninfected controls"}}, "data": [{"substance": "TCR recognizing … presented by A*0201 (PDB #5D2N), expressed on Jurkat-Lucia NFAT reporter T cells", "values": [{"measurement": "in vitro T cell activation assay (luciferase), targeting short cassette A (luciferase induction)", "setting": "[1]", "value": 32.5}, {"measurement": "in vitro T cell activation assay (luciferase), targeting short cassette B (luciferase induction)", "setting": "[1]", "value": 31.8}, {"measurement": "in vitro T cell activation assay (luciferase), targeting short cassette C (luciferase induction)", "setting": "[1]", "value": 29.1}, {"measurement": "in vitro T cell activation assay (luciferase), targeting short cassette D (luciferase induction)", "setting": "[1]", "value": 29.1}, {"measurement": "in vitro T cell activation assay (luciferase), targeting short cassette E (luciferase induction)", "setting": "[1]", "value": 28.4}, {"measurement": "in vitro T cell activation assay (luciferase), targeting short cassette F (luciferase induction)", "setting": "[1]", "value": 20.4}, {"measurement": "in vitro T cell activation assay (luciferase), targeting short cassette G (luciferase induction)", "setting": "[1]", "value": 35}, {"measurement": "in vitro T cell activation assay (luciferase), targeting short cassette H (luciferase induction)", "setting": "[1]", "value": 30.3}, {"measurement": "in vitro T cell activation assay (luciferase), targeting short cassette I (luciferase induction)", "setting": "[1]", "value": 22.5}, {"measurement": "in vitro T cell activation assay (luciferase), targeting short cassette J (luciferase induction)", "setting": "[1]", "value": 38.1}, {"measurement": "induction of luciferase, short cassette AAY (luciferase induction)", "setting": "[1]", "value": 24.5}, {"measurement": "luciferase induction, short cassette 9AA", "setting": "[1]; [3]", "value": 33.6}, {"measurement": "luciferase induction, short cassette 17AA", "setting": "[1]; [3]", "value": 42.8}, {"measurement": "luciferase induction, short cassette 25AA", "setting": "[1]; [3]", "value": 42.3}, {"measurement": "luciferase induction, short cassette AAY", "setting": "[1]; [3]", "value": 24.5}, {"measurement": "luciferase induction, short cassette DPP", "setting": "[1]; [3]", "value": 0.9}, {"measurement": "luciferase induction, short cassette RR", "setting": "[1]; [3]", "value": 21.7}]}, {"substance": "TCR recognizing … presented by A*0201 (PDB #3REV), expressed on Jurkat-Lucia NFAT reporter T cells", "values": [{"measurement": "in vitro T cell activation assay (luciferase), targeting short cassette A (luciferase induction)", "setting": "[2]", "value": 6.1}, {"measurement": "in vitro T cell activation assay (luciferase), targeting short cassette B (luciferase induction)", "setting": "[2]", "value": 6.3}, {"measurement": "in vitro T cell activation assay (luciferase), targeting short cassette C (luciferase induction)", "setting": "[2]", "value": 7.6}, {"measurement": "in vitro T cell activation assay (luciferase), targeting short cassette D (luciferase induction)", "setting": "[2]", "value": 7}, {"measurement": "in vitro T cell activation assay (luciferase), targeting short cassette E (luciferase induction)", "setting": "[2]", "value": 5.9}, {"measurement": "in vitro T cell activation assay (luciferase), targeting short cassette F (luciferase induction)", "setting": "[2]", "value": 3.7}, {"measurement": "in vitro T cell activation assay (luciferase), targeting short cassette G (luciferase induction)", "setting": "[2]", "value": 7.6}, {"measurement": "in vitro T cell activation assay (luciferase), targeting short cassette H (luciferase induction)", "setting": "[2]", "value": 5.4}, {"measurement": "in vitro T cell activation assay (luciferase), targeting short cassette I (luciferase induction)", "setting": "[2]", "value": 6.2}, {"measurement": "in vitro T cell activation assay (luciferase), targeting short cassette J (luciferase induction)", "setting": "[2]", "value": 6.4}, {"measurement": "induction of luciferase, short cassette AAY (luciferase induction)", "setting": "[2]", "value": 11.3}, {"measurement": "luciferase induction, short cassette 9AA", "setting": "[2]", "value": 12}, {"measurement": "luciferase induction, short cassette 17AA", "setting": "[2]", "value": 10.3}, {"measurement": "luciferase induction, short cassette 25AA", "setting": "[2]", "value": 14.6}, {"measurement": "luciferase induction, short cassette AAY", "setting": "[2]", "value": 11.3}, {"measurement": "luciferase induction, short cassette DPP", "setting": "[2]", "value": 1.1}, {"measurement": "luciferase induction, short cassette RR", "setting": "[2]", "value": 8.5}]}]}
